Results as given in PMC3954644 (Biochemistry, 2014).

Legend:
AUC = molecular target: the molecule itself; experiment: AUC
crystal structure = molecular target: the molecule itself; experiment: crystal structure

B1: Put2p mutant W193A, residues 23-575, His tag removed (enzyme, S. cerevisiae, UniProt P07275 23-575, looked up)
chain: KPPKHIRNEPVKPFRNIDLKDWDLLRASLMKFKSSSLEVPLVINGERIYDNNERALFPQTNPANHQQVLANVTQATEKDVMNAVKAAKDAKKDWYNLPFYDRSAIFLKAADLISTKYRYDMLAATMLGQGKNVYQAEIDCITELSDFFRYYVKYASDLYAQQPVESADGTANKAEYRPLEGFVYAVSPFNFTAIAANLIGAPALMGNTVVWKPSQTAALSNYLLMTVLEEAGLPKGVINFIPGDPVQVTDQVLADKDFGALHFTGSTNVFKSLYGKIQSGVVEGKYRDYPRIIGETGGKNFHLVHPSANISHAVLSTIRGTFEFQGQKCSAASRLYLPESKSEEFLSDMFGILQSQNVVPMNTSASPISGGNLRGFMGPVIHEQSFDKLVKVIEDAKKDPELEILYGGQYDKSQGWFVGPTVIKAKRPDHPYMSTEFFGPILTVYEYPDTEFNEICDIIDNTSQYALTGAIFAKDRKAIEYADEKLKFSAGNFYINDKCTGAVVSQQWFGGARMSGTDDKAGGPNILSRFVSIRNTKENFYELTDFKYPSNYE
- stoichiometry N (AUC): 2

B2: human Δ1-pyrroline-5-carboxylate dehydrogenase (HsP5CDH, ALDH4A1), residues 18-563, tag-free (enzyme, UniProt P30038 18-563, looked up)
chain: TGAGLRWKHTSSLKVANEPVLAFTQGSPERDALQKALKDLKGRMEAIPCVVGDEEVWTSDVQYQVSPFNHGHKVAKFCYADKSLLNKAIEAALAARKEWDLKPIADRAQIFLKAADMLSGPRRAEILAKTMVGQGKTVIQAEIDAAAELIDFFRFNAKYAVELEGQQPISVPPSTNSTVYRGLEGFVAAISPFNFTAIGGNLAGAPALMGNVVLWKPSDTAMLASYAVYRILREAGLPPNIIQFVPADGPLFGDTVTSSEHLCGINFTGSVPTFKHLWKQVAQNLDRFHTFPRLAGECGGKNFHFVHRSADVESVVSGTLRSAFEYGGQKCSACSRLYVPHSLWPQIKGRLLEEHSRIKVGDPAEDFGTFFSAVIDAKSFARIKKWLEHARSSPSLTILAGGKCDDSVGYFVEPCIVESKDPQEPIMKEEIFGPVLSVYVYPDDKYKETLQLVDSTTSYGLTGAVFSQDKDVVQEATKVLRNAAGNFYINDKSTGSIVGQQPFGGARASGTNDKPGGPHYILRWTSPQVIKETHKPLGDWSYAYMQ
- stoichiometry N (crystal structure): 2
